Reference: publication PMC10786891, “Massively parallel profiling of RNA-targeting CRISPR-Cas13d”
Substitutions are numbered along the chain they refer to. Numbers in names are those of the source.

T1: EsCas13d, nuclease-dead (Eubacterium siraeum, UniProt B0MS50, R295A;H300A;R849A;H854A)
T1 sequence: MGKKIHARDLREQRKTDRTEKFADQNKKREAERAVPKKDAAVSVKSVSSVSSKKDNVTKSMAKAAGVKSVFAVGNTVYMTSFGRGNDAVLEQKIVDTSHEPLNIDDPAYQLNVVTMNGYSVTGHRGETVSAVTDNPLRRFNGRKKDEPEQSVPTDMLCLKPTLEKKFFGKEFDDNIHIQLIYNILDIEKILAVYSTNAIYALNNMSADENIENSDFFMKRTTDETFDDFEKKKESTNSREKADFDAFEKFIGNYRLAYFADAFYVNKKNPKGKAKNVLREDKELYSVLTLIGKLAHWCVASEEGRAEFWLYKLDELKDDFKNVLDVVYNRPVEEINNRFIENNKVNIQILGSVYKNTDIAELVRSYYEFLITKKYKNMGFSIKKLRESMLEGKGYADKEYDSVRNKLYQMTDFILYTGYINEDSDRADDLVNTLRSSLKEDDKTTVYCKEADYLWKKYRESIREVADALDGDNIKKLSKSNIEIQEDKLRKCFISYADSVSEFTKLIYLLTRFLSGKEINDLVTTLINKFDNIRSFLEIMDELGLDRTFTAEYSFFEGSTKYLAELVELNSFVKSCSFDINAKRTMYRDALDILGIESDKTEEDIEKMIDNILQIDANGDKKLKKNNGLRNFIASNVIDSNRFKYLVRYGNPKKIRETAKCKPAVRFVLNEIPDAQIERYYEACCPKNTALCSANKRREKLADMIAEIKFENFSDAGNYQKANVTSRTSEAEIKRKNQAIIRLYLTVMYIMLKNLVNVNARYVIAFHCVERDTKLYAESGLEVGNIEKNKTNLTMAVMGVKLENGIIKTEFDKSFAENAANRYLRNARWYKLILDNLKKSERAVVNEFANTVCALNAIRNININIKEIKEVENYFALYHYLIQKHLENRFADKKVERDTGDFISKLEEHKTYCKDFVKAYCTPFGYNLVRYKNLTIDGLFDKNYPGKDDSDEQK

B1: target 1 G17A (mixed)
RNA 1: CACCCGUGCAAAAAUGCAGGGGUCUAAAACUGAGCGGAUAACCUCUCUAUGG
RNA 2: GGGAAUGGAUCCACAUCUACGAAUUCGUACCAUAAAGAGGUUAUCCGCUCACCGAGAUCGGAAGAGCACACGU
B2: target 1 insG 3' of 22,insC 3' of 5 (mixed)
RNA 1: B1 RNA 1
RNA 2: GGGAAUGGAUCCACAUCUACGAAUUCGUACGCAUAGAGAGGUUAUCCGCCUCACCGAGAUCGGAAGAGCACACGU
B3: target 1 insC 3' of 20,insA 3' of 10 (mixed)
RNA 1: B1 RNA 1
RNA 2: B2 RNA 2 with G31C, C32A, A33C, U45A, C46U, G48C, C49G
B4: target 1 C7G,U8A (mixed)
RNA 1: B1 RNA 1
RNA 2: B1 RNA 2 with A35G, U44A, C45G
B5: target 1 insC 3' of 18,insG 3' of 4 (mixed)
RNA 1: B1 RNA 1
RNA 2: B2 RNA 2 with G31C, C32A, A33U, U34A, A35C, C50G
B6: target 1 A9U,A16C (mixed)
RNA 1: B1 RNA 1
RNA 2: B1 RNA 2 with A35G, A36C, A43U
B7: target 1 del5,del7 (mixed)
RNA 1: B1 RNA 1
RNA 2: GGGAAUGGAUCCACAUCUACGAAUUCGUACCAUAGAGAGGUUAUCCUCACCGAGAUCGGAAGAGCACACGU
B8: target 1 del8,del19 (mixed)
RNA 1: B1 RNA 1
RNA 2: GGGAAUGGAUCCACAUCUACGAAUUCGUACCAAGAGAGGUUACCGCUCACCGAGAUCGGAAGAGCACACGU
B9: target 1 C7U,G15U (mixed)
RNA 1: B1 RNA 1
RNA 2: B1 RNA 2 with A35G, G37U, C45U
B10: target 1 G5U,C7U (mixed)
RNA 1: B1 RNA 1
RNA 2: B1 RNA 2 with A35G, C45U, G47U
B11: target 1 C6A,U8C (mixed)
RNA 1: B1 RNA 1
RNA 2: B1 RNA 2 with A35G, U44C, C46A
B12: target 1 insC 3' of 13,insG 3' of 9 (mixed)
RNA 1: B1 RNA 1
RNA 2: GGGAAUGGAUCCACAUCUACGAAUUCGUACCAUAGAGAGCGUUAGUCCGCUCACCGAGAUCGGAAGAGCACACGU
B13: target 1 C6G,U10C (mixed)
RNA 1: B1 RNA 1
RNA 2: B1 RNA 2 with A35G, U42C, C46G
B14: target 1 C7G,A14C (mixed)
RNA 1: B1 RNA 1
RNA 2: B1 RNA 2 with A35G, A38C, C45G
B15: target 1 insC 3' of 11,insG 3' of 2 (mixed)
RNA 1: B1 RNA 1
RNA 2: GGGAAUGGAUCCACAUCUACGAAUUCGUACCAUAGAGAGGUCUAUCCGCUCGACCGAGAUCGGAAGAGCACACGU
B16: target 1 U8G,G17C (mixed)
RNA 1: B1 RNA 1
RNA 2: B1 RNA 2 with A35C, U44G
B17: target 1 insC 3' of 10,insG 3' of 10 (mixed)
RNA 1: B1 RNA 1
RNA 2: B12 RNA 2 with C40G, G41U, U43C, A44G, G45A
B18: target 1 insA 3' of 17,insG 3' of 10 (mixed)
RNA 1: B1 RNA 1
RNA 2: B12 RNA 2 with G37A, A38G, G39A, C40G, A44G, G45A
B19: target 1 A1U,G17A (mixed)
RNA 1: B1 RNA 1
RNA 2: B1 RNA 2 with A51U
B20: target 1 A1C,G17A (mixed)
RNA 1: B1 RNA 1
RNA 2: B1 RNA 2 with A51C
B21: target 1 insU 3' of 15,insC 3' of 14 (mixed)
RNA 1: B1 RNA 1
RNA 2: B12 RNA 2 with A38U, G39A, U42G, A44U, G45A
B22: target 1 insG 3' of 19,insA 3' of 3 (mixed)
RNA 1: B1 RNA 1
RNA 2: B2 RNA 2 with G31C, C32A, A33U, U34G, C50U, U51A
B23: target 1 insA 3' of 3,insC 3' of 3 (mixed)
RNA 1: B1 RNA 1
RNA 2: B15 RNA 2 with C42U, U43A, A44U, U45C, C47G, G48C, C49U, U50A, G52C
B24: target 1 insG 3' of 7,insA 3' of 5 (mixed)
RNA 1: B1 RNA 1
RNA 2: B12 RNA 2 with C40G, G41U, U43A, A44U, G45C, U46G, C48G, G49A
B25: target 1 insA 3' of 22,insU 3' of 18 (mixed)
RNA 1: B1 RNA 1
RNA 2: GGGAAUGGAUCCACAUCUACGAAUUCGUACACAUAUGAGAGGUUAUCCGCUCACCGAGAUCGGAAGAGCACACGU
B26: target 1 insU 3' of 21,insA 3' of 7 (mixed)
RNA 1: B1 RNA 1
RNA 2: B2 RNA 2 with G31C, C32U, C47A, G48C, C49G
B27: target 1 insA 3' of 7,insA 3' of 7 (mixed)
RNA 1: B1 RNA 1
RNA 2: B12 RNA 2 with C40G, G41U, U43A, A44U, G45C, U46A, C47A
B28: target 1 insC 3' of 11,insG 3' of 10 (mixed)
RNA 1: B1 RNA 1
RNA 2: B12 RNA 2 with C40G, G41U, U42C, A44G, G45A
B29: target 1 insU 3' of 12,insU 3' of 9 (mixed)
RNA 1: B1 RNA 1
RNA 2: B12 RNA 2 with C40G, G41U, G45U
B30: target 1 G17A,A18U (mixed)
RNA 1: B1 RNA 1
RNA 2: B1 RNA 2 with A34U
B31: target 1 insU 3' of 7,insU 3' of 4 (mixed)
RNA 1: B1 RNA 1
RNA 2: B15 RNA 2 with C42U, U43A, A44U, U45C, C46U, C51U, G52C
B32: target 1 U3G,A18U (mixed)
RNA 1: B1 RNA 1
RNA 2: B1 RNA 2 with A34U, A35G, U49G
B33: target 1 insC 3' of 15,insU 3' of 13 (mixed)
RNA 1: B1 RNA 1
RNA 2: B12 RNA 2 with A38C, G39A, C40G, G41U, U42G, A44U, G45A

Target: T1, EsCas13d, nuclease-dead
Experiment: crRNA (strand 1, pre-loaded); Mg2+; 40 mM Tris-HCl pH 7.5, 150 mM NaCl, 6 mM MgCl2, 1 mM DTT, 0.1% Tween-20, 0.2 mg/ml BSA; 25 C; 10 min per concentration, then washed
Details: tags: His6-TwinStrep-SUMO cleaved; N-terminal SNAP kept (SNAP-Surface 488); label: 3' end held by stalled T7 RNA polymerase

| Binder | Kd |
| --- | --- |
| B1 | 27.4 ± 1.7 nM |
| B2 | 67 ± 23 nM |
| B3 | 10.1 ± 0.4 nM |
| B4 | 7.45 ± 0.24 nM |
| B5 | 35.7 ± 2 nM |
| B6 | 45 ± 6 nM |
| B7 | 13.9 ± 0.7 nM |
| B8 | 64 ± 7 nM |
| B9 | 13.1 ± 1 nM |
| B10 | 53 ± 6 nM |
| B11 | 10.7 ± 0.6 nM |
| B12 | 13 ± 0.9 nM |
| B13 | 14.2 ± 0.4 nM |
| B14 | 33.5 ± 2.9 nM |
| B15 | 42 ± 14 nM |
| B16 | 72 ± 15 nM |
| B17 | 13.6 ± 0.5 nM |

| Binder | Kd |
| --- | --- |
| B18 | 43 ± 9 nM |
| B19 | 36 ± 10 nM |
| B20 | ~45 nM |
| B21 | 43 ± 6 nM |
| B22 | 49 ± 5 nM |
| B23 | 62 ± 19 nM |
| B24 | 7.33 ± 0.33 nM |
| B25 | 47 ± 6 nM |
| B26 | 20.3 ± 0.9 nM |
| B27 | 7 ± 0.5 nM |
| B28 | 23.4 ± 2.5 nM |
| B29 | 29 ± 5 nM |
| B30 | 50 ± 12 nM |
| B31 | 15.2 ± 0.6 nM |
| B32 | 20.5 ± 1.3 nM |
| B33 | 26 ± 5 nM |
